The supplement of paper PMC9112550, “Optimization of the antimicrobial peptide Bac7 by deep mutational scanning” (BMC Biology, 2022)

Tested on: Escherichia coli TOP10
Assay: shrunken log2 fold change of peptide-encoding DNA abundance (4.5 h post-induction vs induction); higher = less antimicrobial activity (less host growth inhibition)
Conditions: time post-induction: 4.5 h; library: site-saturation at positions 5, 18, 19, 20
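Note: peptides expressed intracellularly from a pBAD plasmid library in pooled LB shake-flask culture, induced with 0.3% L-arabinose, DNA abundance read by NGS, three biological replicates, DESeq2 with apeglm shrinkage.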

Row | Sequence | shrunken log2 fold change
1 | RRIRFRPPRLPRPRPRPHAKPRP | 0.229
2 | RRIRFRPPRLPRPRPRPHASPRP | -0.259
3 | RRIRFRPPRLPRPRPRPHCGPRP | -0.308
4 | RRIRFRPPRLPRPRPRPHCHPRP | -0.59
5 | RRIRFRPPRLPRPRPRPHEAPRP | -0.377
6 | RRIRFRPPRLPRPRPRPHFCPRP | -1.02
7 | RRIRFRPPRLPRPRPRPHFIPRP | -0.473
8 | RRIRFRPPRLPRPRPRPHFWPRP | -0.124
9 | RRIRFRPPRLPRPRPRPHGNPRP | -0.414
10 | RRIRFRPPRLPRPRPRPHHEPRP | -0.515
11 | RRIRFRPPRLPRPRPRPHHRPRP | -0.401
12 | RRIRFRPPRLPRPRPRPHKNPRP | -0.389
13 | RRIRFRPPRLPRPRPRPHKPPRP | 0.14
14 | RRIRFRPPRLPRPRPRPHKRPRP | 0.0127
15 | RRIRFRPPRLPRPRPRPHLCPRP | -0.0692
16 | RRIRFRPPRLPRPRPRPHLTPRP | -0.226
17 | RRIRFRPPRLPRPRPRPHMCPRP | -1.24
18 | RRIRFRPPRLPRPRPRPHMSPRP | 0.0344
19 | RRIRFRPPRLPRPRPRPHMVPRP | -0.809
20 | RRIRFRPPRLPRPRPRPHNDPRP | -0.81
21 | RRIRFRPPRLPRPRPRPHPLPRP | -0.16
22 | RRIRFRPPRLPRPRPRPHQPPRP | 0.575
23 | RRIRFRPPRLPRPRPRPHSDPRP | -0.129
24 | RRIRFRPPRLPRPRPRPHSSPRP | -0.194
25 | RRIRFRPPRLPRPRPRPHTWPRP | -0.415

Row | Sequence | shrunken log2 fold change
26 | RRIRFRPPRLPRPRPRPHYNPRP | -0.786
27 | RRIRFRPPRLPRPRPRPIANPRP | -0.0564
28 | RRIRFRPPRLPRPRPRPIEKPRP | -0.0389
29 | RRIRFRPPRLPRPRPRPIEQPRP | 0.0187
30 | RRIRFRPPRLPRPRPRPIERPRP | 0.116
31 | RRIRFRPPRLPRPRPRPIGAPRP | 0.064
32 | RRIRFRPPRLPRPRPRPIICPRP | 0.12
33 | RRIRFRPPRLPRPRPRPIKEPRP | -0.113
34 | RRIRFRPPRLPRPRPRPILHPRP | -0.75
35 | RRIRFRPPRLPRPRPRPINPPRP | -1.08
36 | RRIRFRPPRLPRPRPRPIQFPRP | -0.000317
37 | RRIRFRPPRLPRPRPRPIWLPRP | -0.17
38 | RRIRFRPPRLPRPRPRPKAFPRP | 0.133
39 | RRIRFRPPRLPRPRPRPKCKPRP | 0.00614
40 | RRIRFRPPRLPRPRPRPKDQPRP | 0.0707
41 | RRIRFRPPRLPRPRPRPKEIPRP | -0.0277
42 | RRIRFRPPRLPRPRPRPKEKPRP | -0.0715
43 | RRIRFRPPRLPRPRPRPKFPPRP | -0.0265
44 | RRIRFRPPRLPRPRPRPKFWPRP | 0.265
45 | RRIRFRPPRLPRPRPRPKKDPRP | 0.184
46 | RRIRFRPPRLPRPRPRPKKSPRP | 0.158
47 | RRIRFRPPRLPRPRPRPKMYPRP | -0.815
48 | RRIRFRPPRLPRPRPRPKNSPRP | -0.533
49 | RRIRFRPPRLPRPRPRPKNWPRP | 0.31
50 | RRIRFRPPRLPRPRPRPKNYPRP | -0.525

Row | Sequence | shrunken log2 fold change
51 | RRIRFRPPRLPRPRPRPKPQPRP | 0.384
52 | RRIRFRPPRLPRPRPRPKPTPRP | 0.879
53 | RRIRFRPPRLPRPRPRPKPWPRP | 0.489
54 | RRIRFRPPRLPRPRPRPKSVPRP | 0.0124
55 | RRIRFRPPRLPRPRPRPKTMPRP | -0.197
56 | RRIRFRPPRLPRPRPRPKVCPRP | 0.0321
57 | RRIRFRPPRLPRPRPRPKWLPRP | 0.251
58 | RRIRFRPPRLPRPRPRPKWTPRP | -0.196
59 | RRIRFRPPRLPRPRPRPKYWPRP | -0.176
60 | RRIRFRPPRLPRPRPRPLANPRP | 0.0332
61 | RRIRFRPPRLPRPRPRPLCEPRP | -0.166
62 | RRIRFRPPRLPRPRPRPLCHPRP | -0.271
63 | RRIRFRPPRLPRPRPRPLDKPRP | -0.103
64 | RRIRFRPPRLPRPRPRPLDMPRP | -0.372
65 | RRIRFRPPRLPRPRPRPLEDPRP | -0.0439
66 | RRIRFRPPRLPRPRPRPLEYPRP | -0.474
67 | RRIRFRPPRLPRPRPRPLFLPRP | -0.478
68 | RRIRFRPPRLPRPRPRPLGIPRP | -0.869
69 | RRIRFRPPRLPRPRPRPLHEPRP | 0.0931
70 | RRIRFRPPRLPRPRPRPLIKPRP | -0.31
71 | RRIRFRPPRLPRPRPRPLIYPRP | -0.898
72 | RRIRFRPPRLPRPRPRPLKEPRP | -0.273
73 | RRIRFRPPRLPRPRPRPLLRPRP | 0.0227
74 | RRIRFRPPRLPRPRPRPLNAPRP | -0.166
75 | RRIRFRPPRLPRPRPRPLPNPRP | 0.184
